Laboratory results taken from paper doi:10.1101/2024.12.09.627393 (bioRxiv, 2024).

Target: T1, histone H4K5acK8acK12acK16ac residues 1–23 peptide (dCypher) (UniProt P62805 2-24, acetyl-lysine at 5, 8, 12 and 16)
T1 construct: histone H4 residues 1-23; also called H4Tetra^ac
Test: AlphaScreen or HTRF; dCypher: GST-CECR2-BRD titrated against histone peptides (100 nM); glutathione Acceptor and streptavidin Donor beads; 50 mM Tris pH 7.5, 50 mM NaCl, 0.01% Tween-20, 0.01% BSA, 1 mM TCEP, 0.0004% Poly-L-Lysine; room temperature; relative EC50 (EC50^rel)
Settings: both partners purified

EC50: 7.2 nM
B1: GST-CECR2-BRD (GST tag retained, for dCypher assays) (domain or fragment)
chain: not shown
notes: human CECR2 bromodomain, amino acids 424-538 of UniProt Q9BXF3-1, codon optimized for E. coli, in pGEX-6P-1; PreScission Protease site between GST and the bromodomain; source: E. coli BL21(DE3) pLysS, purified (glutathione agarose, eluted with reduced glutathione, dialysed); not shown: GST, N-terminal, kept
